Test results from the supplement of paper PMC10567573.

B1: PPFIA4 (parent)
chain: VMTLPSDLRKHRRKLLSPVSREEN

Variants of: B1
Assay: protein stability index of a GFP-peptide fusion (GPS, HEK-293T) (PSI 1-6); higher = more stable
Settings: c terminus: a fixed tail appended
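Also: lentivirally expressed fusions sorted by FACS into six bins by GFP to DsRed ratio, PSI derived from sequencing read proportions per bin multiplied by bin number.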

Protein stability index of substitutions, site by site:
E23: L 3.4 | T 3.04 | V 3.1 | Y 2.96 | P 3.5 | I 3.15 | Q 2.96 | F 2.59 | N 3.14 | W 2.44 | R 3.06 | M 3.29 | S 3.93 | C 2.88 | D 3.52
H11: G 3.79 | A 3.42 | Q 2.93 | T 3.79 | E 4.37 | S 3.75 | L 3.14 | M 3.49 | Y 3.35 | F 3.46 | W 3.24 | N 4.02 | D 4.37 | V 3.35
T3: E 3.51 | P 3.51 | F 1.74 | Q 2.85 | K 2.66 | A 3.92 | S 3.71 | I 2.65 | W 2.26 | V 2.95 | N 2.82 | M 2.31 | D 4.12
S6: L 3.38 | F 3.57 | N 3.51 | D 4.02 | A 3.93 | M 3.4 | R 3.41 | C 3.6 | G 3.65
E22: R 3.66 | L 2.26 | Y 2.93 | V 3.86 | A 3.12 | I 3.02 | N 3.27 | T 3.22 | F 2.44 | H 3.52 | D 3.5 | G 3.16 | K 3.67 | S 3.68 | W 2.23
P18: G 4.12 | W 2.47 | K 4.16 | T 4.31 | V 4.09 | C 3.51 | Q 2.92 | Y 3.42 | A 4.42 | M 3.83 | F 2.83 | R 3.08
P5: E 4.18 | L 2.48 | W 2.25 | N 3.47 | F 2.1 | D 4.37 | Y 2.7 | C 2.63 | Q 3.4 | H 2.67
N24: C 3.33 | V 3.27 | F 2.44 | K 4.04 | L 2.94 | S 3.91 | R 3.73 | P 3.45 | Q 4.05 | H 3.88 | Y 3.02 | E 4.31 | I 3.34 | A 4.02 | M 3.07 | T 3.73
V1: T 4.25 | A 3.93 | P 4.27 | D 4.35 | R 4.59 | I 3.55 | W 2.66 | L 3.27 | M 3.89 | F 2.83 | N 3.62 | E 4.2 | Y 3.21 | H 4.25 | G 3.31
D7: M 2.94 | V 2.84 | E 3.46 | T 3.24 | I 2.72 | Q 3.3 | W 2.92 | F 2.57 | G 3.62 | Y 3.2 | C 2.86 | K 3.19 | A 2.24 | L 2.33 | H 3.15 | S 2.98
R12: L 2.95 | N 4.14 | Y 3.35 | G 3.86 | A 3.66 | Q 4.29 | T 4.21 | E 4.58 | V 3.41 | C 3.34 | F 3.36 | I 3.51 | S 4.12
K14: N 3.9 | R 3.32 | F 3.54 | D 4.28 | H 3.81 | Y 3.1 | V 3.13 | C 2.98 | W 2.43 | G 4.33 | E 4.07 | L 3.48
K10: D 4.32 | V 2.96 | Q 4.29 | A 4.32 | F 2.75 | E 3.48 | W 3.35 | N 3.77 | L 3.43 | S 3.88 | Y 2.76 | C 3.52 | G 3.87 | T 4.02 | H 3.58
R21: V 3.91 | T 4.12 | F 3.54 | A 4.18 | Y 3.34 | W 3.32 | E 4.47 | H 4.17 | D 4.16 | N 3.85 | C 4.06 | Q 4.36 | S 4.29 | L 3.84
L15: R 3.92 | W 3.5 | H 4.02 | E 4.22 | P 4.11 | M 4.08 | K 3.94 | A 4.08 | N 4.38 | V 3.81 | T 3.9 | I 3.9 | D 4.63 | Y 4.06 | F 4.27 | C 3.55
V19: C 3.17 | L 3.43 | W 2.52 | R 3.69 | H 4.11 | Y 2.94 | M 2.98 | S 4.21 | A 4.06 | T 4.18
R9: D 4.1 | V 3.82 | Y 3.41 | C 4.01 | F 3.31 | N 4.18 | K 4 | S 4.14 | H 3.9 | T 4 | A 4.01 | L 3.59 | I 3.69 | E 4.11 | M 3.53 | W 3.49 | P 4.44
M2: E 4.54 | D 4.71 | N 3.84 | I 3.12 | C 3.65 | G 4.17 | Q 3.06 | L 3.48 | A 4.31 | Y 3.15 | W 3.72 | S 3.69
S20: N 3.91 | F 2.54 | P 3.67 | Y 2.98 | M 3.82 | K 3.92 | H 3.18 | C 2.69 | G 4.22 | T 3.75 | Q 4.17 | V 3.23 | A 3.98 | R 3.84 | I 3.84 | D 4.01
S17: W 2.9 | V 3.53 | E 3.86 | K 3.66 | M 3.48 | R 3.77 | Q 4.08 | H 3.93 | N 3.88 | A 4.24 | D 4.29 | T 4.23 | C 3.65 | Y 4.07 | F 4.01 | P 4.17 | G 3.9
L16: F 3.29 | Y 3.85 | N 3.87 | P 4.12 | V 3.84 | G 4.43 | I 3.41 | R 3.99 | K 4.03 | Q 3.75 | T 4.31 | M 4.07 | C 4.37 | S 4.43 | A 4.34
R13: C 3.49 | N 3.95 | K 3.5 | V 3.78 | T 3.98 | I 3.47 | A 4.11 | F 2.89 | Y 3.63 | D 4.09 | P 4.33 | W 2.92 | H 4.05 | S 4.36
L8: R 4.15 | Y 3.24 | T 4.24 | I 4.07 | H 3.9 | W 3.22 | C 4.04 | A 3.43 | S 4.73 | G 3.56 | V 4.11 | D 4.28 | K 4.14 | F 3.59 | E 4.35
L4: T 4.28 | K 4.44 | V 3.77 | N 4.23 | E 4.37 | R 3.25 | Y 3.45 | I 3.42 | W 4.09 | S 3.94 | M 3.69 | Q 4.02 | G 4.45
